# T1: CD20 protein on CD20 protein-positive lymphoma cell Raji (ATCC CCL-86) (UniProt P11836 1-297, limits assumed)
# T1 construct: whole, on cells; The target is native CD20 on Raji cells; also called CD20 antigen
# T1 sequence (looked up): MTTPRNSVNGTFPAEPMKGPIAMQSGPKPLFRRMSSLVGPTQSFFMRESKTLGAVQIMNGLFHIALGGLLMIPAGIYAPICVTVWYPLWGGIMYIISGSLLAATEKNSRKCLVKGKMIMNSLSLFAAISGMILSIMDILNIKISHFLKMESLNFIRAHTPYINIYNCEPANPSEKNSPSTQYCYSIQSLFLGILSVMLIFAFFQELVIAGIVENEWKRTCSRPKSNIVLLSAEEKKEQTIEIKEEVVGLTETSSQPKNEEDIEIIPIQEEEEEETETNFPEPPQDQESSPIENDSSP
# Target: T1, CD20 protein on CD20 protein-positive …
# Experiment: flow cytometry, fluorescently labeled antibody on Raji cells
# Method: Briefly, after diluted in equal concentration proportions, the purified fluorescently labeled antibody was incubated with the CD20 protein-positive lymphoma cell Raji (ATCC CCL-86) for 45 minutes on ice, and then washed twice and subjected to flow cytometry. The binding activity of the antibody was further evaluated based on the change in fluorescence intensity of the antibody after binding to the cells at different antibody concentrations.
row,binding result,Binder
1,binds,"novel CD20 antibody H102YH (antibody, human IgG1, V domains shown) VH: QVQLQQPGAELVKPGASVKMSCKASGYTFTSYNMHWVKQTPGRGLEWIGAIYPGNGDTSYNQKFKGKATLTADKSSSTAYMQLSSLTSEDSAVYYCARSTYHGGDWYFNVWGAGTTVTVSA VL: QIVLSQSPAILSASPGEKVTMTCRASSSVSYIHWFQQKPGSSPKPWIYATSNLASGVPVRFSGSGSGTSYSLTISRVEAEDAATYYCQQWTSNPPTFGGGTKLEIKV"
2,binds,"novel CD20 antibody H102YR (antibody, human IgG1, V domains shown) VH: QVQLQQPGAELVKPGASVKMSCKASGYTFTSYNMHWVKQTPGRGLEWIGAIYPGNGDTSYNQKFKGKATLTADKSSSTAYMQLSSLTSEDSAVYYCARSTYRGGDWYFNVWGAGTTVTVSA VL: QIVLSQSPAILSASPGEKVTMTCRASSSVSYIHWFQQKPGSSPKPWIYATSNLASGVPVRFSGSGSGTSYSLTISRVEAEDAATYYCQQWTSNPPTFGGGTKLEIKV"
3,binds,"novel CD20 antibody H102YQ (antibody, human IgG1, V domains shown) VH: QVQLQQPGAELVKPGASVKMSCKASGYTFTSYNMHWVKQTPGRGLEWIGAIYPGNGDTSYNQKFKGKATLTADKSSSTAYMQLSSLTSEDSAVYYCARSTYQGGDWYFNVWGAGTTVTVSA VL: QIVLSQSPAILSASPGEKVTMTCRASSSVSYIHWFQQKPGSSPKPWIYATSNLASGVPVRFSGSGSGTSYSLTISRVEAEDAATYYCQQWTSNPPTFGGGTKLEIKV"
4,binds,"novel CD20 antibody H102YN (antibody, human IgG1, V domains shown) VH: QVQLQQPGAELVKPGASVKMSCKASGYTFTSYNMHWVKQTPGRGLEWIGAIYPGNGDTSYNQKFKGKATLTADKSSSTAYMQLSSLTSEDSAVYYCARSTYNGGDWYFNVWGAGTTVTVSA VL: QIVLSQSPAILSASPGEKVTMTCRASSSVSYIHWFQQKPGSSPKPWIYATSNLASGVPVRFSGSGSGTSYSLTISRVEAEDAATYYCQQWTSNPPTFGGGTKLEIKV"
5,binds,"novel CD20 antibody H102YV (antibody, human IgG1, V domains shown) VH: QVQLQQPGAELVKPGASVKMSCKASGYTFTSYNMHWVKQTPGRGLEWIGAIYPGNGDTSYNQKFKGKATLTADKSSSTAYMQLSSLTSEDSAVYYCARSTYVGGDWYFNVWGAGTTVTVSA VL: QIVLSQSPAILSASPGEKVTMTCRASSSVSYIHWFQQKPGSSPKPWIYATSNLASGVPVRFSGSGSGTSYSLTISRVEAEDAATYYCQQWTSNPPTFGGGTKLEIKV"
6,binds,"novel CD20 antibody H102YS (antibody, human IgG1, V domains shown) VH: QVQLQQPGAELVKPGASVKMSCKASGYTFTSYNMHWVKQTPGRGLEWIGAIYPGNGDTSYNQKFKGKATLTADKSSSTAYMQLSSLTSEDSAVYYCARSTYSGGDWYFNVWGAGTTVTVSA VL: QIVLSQSPAILSASPGEKVTMTCRASSSVSYIHWFQQKPGSSPKPWIYATSNLASGVPVRFSGSGSGTSYSLTISRVEAEDAATYYCQQWTSNPPTFGGGTKLEIKV"
7,binds,"novel CD20 antibody H102YM (antibody, human IgG1, V domains shown) VH: QVQLQQPGAELVKPGASVKMSCKASGYTFTSYNMHWVKQTPGRGLEWIGAIYPGNGDTSYNQKFKGKATLTADKSSSTAYMQLSSLTSEDSAVYYCARSTYMGGDWYFNVWGAGTTVTVSA VL: QIVLSQSPAILSASPGEKVTMTCRASSSVSYIHWFQQKPGSSPKPWIYATSNLASGVPVRFSGSGSGTSYSLTISRVEAEDAATYYCQQWTSNPPTFGGGTKLEIKV"
8,binds,"novel CD20 antibody H102YL (antibody, human IgG1, V domains shown) VH: QVQLQQPGAELVKPGASVKMSCKASGYTFTSYNMHWVKQTPGRGLEWIGAIYPGNGDTSYNQKFKGKATLTADKSSSTAYMQLSSLTSEDSAVYYCARSTYLGGDWYFNVWGAGTTVTVSA VL: QIVLSQSPAILSASPGEKVTMTCRASSSVSYIHWFQQKPGSSPKPWIYATSNLASGVPVRFSGSGSGTSYSLTISRVEAEDAATYYCQQWTSNPPTFGGGTKLEIKV"
